# B1: CA185_01979 mouse IgG1 (mIgG1, kappa) (antibody, V domains shown)
# VH: EVHLVESGPGLVKPSQSLSLTCSVTGYSITNSYWDWIRKFPGNKMEWMGYINYSGSTGYNPSLKSRISISRDTSNNQFFLQLNSITTEDTATYYCARGTYGYNAYHFDYWGRGVMVTVSS
# VL: DIQMTQSPASLSASLEEIVTITCQASQDIGNWLSWYQQKPGKSPHLLIYGTTSLADGVPSRFSGSRSGTQYSLKISGLQVADIGIYVCLQAYSTPFTFGSGTKLEIKR
# notes: also called CA185_01979.0; VR0001842
# Experiments:
# [1] = target: T1, human TNFα in complex with compound (1) (human, UniProt P01375 77-233); assay: SPR BIAcore, compound-bound against apo TNFα
# T1 construct: also called human TNFα + compound (1); TNFα-compound (1) complex
# [2] = target: T2, human TNFα in complex with compound (2) (human, UniProt P01375 77-233); assay: SPR BIAcore, compound-bound against apo TNFα
# T2 construct: also called human TNFα + compound (2)
# T2 sequence (P01375 77-233 limits assumed, one chain of several): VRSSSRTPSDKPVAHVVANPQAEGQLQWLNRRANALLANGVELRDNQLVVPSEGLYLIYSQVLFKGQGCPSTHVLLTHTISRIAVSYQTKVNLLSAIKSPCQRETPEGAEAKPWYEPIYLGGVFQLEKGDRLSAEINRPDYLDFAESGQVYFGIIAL
# T1 sequence (P01375 77-233 limits assumed, one chain of several): as above
binder,measurement,setting,value
B1,log selective binding against apo human TNFα,[1],> 2 log
same,log selective binding against apo human TNFα,[2],> 2 log
